*1 amine or outer side, *2 acyl side, *3 side chain or, on linkers, in order; H or OH if unused. Bridges are numbered along the chain shown (N, C = ends). Roman numbers before positions name the chains, in order. Where no end group is shown, it is not given here. [ ]: non-standard residue; d: D form. The star is where a group is joined. TATA = O=C(CC[*:1])N1CN(C(=O)CC[*:2])CN(C(=O)CC[*:3])C1; 1Nal = N[C@@H](Cc1cccc2ccccc12)C(=O)O; Hyp = O=C(O)[C@@H]1C[C@@H](O)CN1; hArg = N=C(N)NCCCC[C@H](N)C(=O)O; tBuAla = CC(C)(C)C[C@H](N)C(=O)O; Cysteamide = C(CS[*:3])N[*:1]; NMeA = CN[C@@H](C)C(=O)O; Nle = CCCC[C@H](N)C(=O)O; Pent4ynoyl = C#CCCC(=O)*; dNMeA = CN[C@H](C)C(=O)O; βAla = NCCC(=O)O; Mpa = O=C(O)CCS
B1: BCY12583 (peptide)
peptide 1: CP[1Nal][dE]CL[hArg]DWSTP[Hyp]WC
peptide 2: Ac-C[tBuAla]PE[dK](Pent4ynoyl)PYCFADPY[Nle]CA
modifications: linker I:1-I:5-I:15, II:1-II:8-II:15 via TATA; not fully specified (bridges); printed as CP[1Nal][dE]CL[HArg]DWSTP[HyP]WC / Ac-C[tBuAla]PE[D-Lys(PYA)]PYCFADPY[Nle]CA; also: chain 1 N-terminus joined to chain 2 dLys(PYA) by Peg5 linker (heterotandem complex)
B2: BCY12576 (peptide)
peptide 1: XXKCMXDWSTPXWC
peptide 2: CXPEXPYCFADPYXCA
modifications: Ac-C[tBuAla]PE[D-Lys(PYA)]PYCFADPY[Nle]CA; Cys residues bonded to TATA scaffold; [3-mercaptopropionic acid]P[1Nal][dK]CM[HArg]DWSTP[HyP]WC; reactive groups bonded to TATA scaffold
B3: BCY12709 (peptide)
peptide 1: CP[1Nal][dD]CM[hArg]DWSTP[Hyp]WC
peptide 2: Ac-C[tBuAla]PE[dK](Pent4ynoyl)PYCFAD[NMeA]Y[Nle]C
modifications: linker I:1-I:5-I:15, II:1-II:8-II:15 via TATA; not fully specified (bridges); also: chain 1 N-terminus joined to chain 2 dLys(PYA) by Peg5 linker (heterotandem complex)
B4: BCY12585 (peptide)
peptide 1: CP[1Nal][dE]CM[hArg]EWSTP[Hyp]WC
peptide 2: Ac-C[tBuAla]PE[dK](Pent4ynoyl)PYCFADPY[Nle]CA
modifications: linker I:1-I:5-I:15, II:1-II:8-II:15 via TATA; not fully specified (bridges); printed as CP[1Nal][dE]CM[HArg]EWSTP[HyP]WC / Ac-C[tBuAla]PE[D-Lys(PYA)]PYCFADPY[Nle]CA; also: chain 1 N-terminus joined to chain 2 dLys(PYA) by Peg5 linker (heterotandem complex)
B5: BCY12710 (peptide)
peptide 1: CP[1Nal][dD]CM[hArg]DWSTP[Hyp]WC
peptide 2: Ac-C[tBuAla]PE[dK](Pent4ynoyl)PYCFAD[dNMeA]Y[Nle]C
modifications: linker I:1-I:5-I:15, II:1-II:8-II:15 via TATA; not fully specified (bridges); also: chain 1 N-terminus joined to chain 2 dLys(PYA) by Peg5 linker (heterotandem complex)
B6: BCY12579 (peptide)
peptide 1: CPXKCMXHWSTPXWC
peptide 2: CXPEXPYCFADPYXCA
modifications: Ac-C[tBuAla]PE[D-Lys(PYA)]PYCFADPY[Nle]CA; Cys residues bonded to TATA scaffold; [Ac]CP[1Nal][dK]CM[HArg]HWSTP[HyP]WC; Cys residues bonded to TATA scaffold
B7: BCY12572 (peptide)
peptide 1: CPXDCMXDWSTPXWC
peptide 2: CXPEKPYCFADPYX
modifications: [Ac]C[tBuAla]PE[dK(PYA)]PYCFADPY[Nle][Cysteamine]; reactive groups bonded to TATA scaffold; CP[1Nal][dD]CM[HArg]DWSTP[HyP]WC; Cys residues bonded to TATA scaffold
B8: BCY12581 (peptide)
peptide 1: CP[1Nal][dE]CM[hArg]DWSTP[Hyp]WC
peptide 2: Ac-C[tBuAla]PE[dK](Pent4ynoyl)PYCFADPY[Nle]CA
modifications: linker I:1-I:5-I:15, II:1-II:8-II:15 via TATA; not fully specified (bridges); also: chain 1 N-terminus joined to chain 2 dLys(PYA) by Peg5 linker (heterotandem complex)
B9: BCY11618 (peptide)
peptide 1: Pent4ynoyl-[βAla]CP[1Nal][dK]CM[hArg]DWSTP[Hyp]WC
peptide 2: Ac-C[tBuAla]PE[dK]PYCFADPY[Nle]CA
modifications: linker I:2-I:6-I:16, II:1-II:8-II:15 via TATA; linker II:N-II:5 via Peg5; not fully specified (some residues); also: palmitic acid on dK of chain 1
B10: BCY12574 (peptide)
peptide 1: CP[1Nal][dD]CM[hArg]DWSTP[Hyp]WC
peptide 2: [Mpa][tBuAla]PE[dK](Pent4ynoyl)PYCFADPY[Nle]-Cysteamide
modifications: linker I:1-I:5-I:15 via TATA; numbers in words are those of the source; also: two bicycles joined by Peg5 linker, linker at chain B 7 to a chain's N/C-terminus via TATA
B11: BCY12573 (peptide)
peptide 1: CP[1Nal][dD]CM[hArg]DWSTP[Hyp]WC
peptide 2: [Mpa][tBuAla]PE[dK](Pent4ynoyl)PYCFADPY[Nle]C
modifications: linker I:1-I:5-I:15 via TATA; numbers in words are those of the source; also: two bicycles joined by Peg5 linker, linker at chain B 7 at chain B 14 to a chain's N-terminus via TATA
B12: BCY11776 (peptide)
peptide 1: CPXDCMXDWSTPXWC
peptide 2: CXPEKPYCFADPYXCX
modifications: not fully specified; [Ac]C[tBuAla]PE[dK]PYCFADPY[Nle]C[Dap(PYA)]; dK carries palmitic acid (Example 5); Cys residues bonded to TATA scaffold; CP[1Nal][dD]CM[HArg]DWSTP[HyP]WC; Cys residues bonded to TATA scaffold
B13: BCY12580 (peptide)
peptide 1: CPXKCMXEWSTPXWC
peptide 2: CXPEXPYCFADPYXCA
modifications: Ac-C[tBuAla]PE[D-Lys(PYA)]PYCFADPY[Nle]CA; Cys residues bonded to TATA scaffold; [Ac]CP[1Nal][dK]CM[HArg]EWSTP[HyP]WC; Cys residues bonded to TATA scaffold
B14: BCY12578 (peptide)
peptide 1: XXKCMXDWSTPXX
peptide 2: CXPEXPYCFADPYXCA
modifications: Ac-C[tBuAla]PE[D-Lys(PYA)]PYCFADPY[Nle]CA; Cys residues bonded to TATA scaffold; [3-mercaptopropionic acid]P[1Nal][dK]CM[HArg]DWSTP[HyP]W[Cysteamine]; reactive groups bonded to TATA scaffold
B15: BCY12577 (peptide)
peptide 1: CPXKCMXDWSTPXX
peptide 2: CXPEXPYCFADPYXCA
modifications: Ac-C[tBuAla]PE[D-Lys(PYA)]PYCFADPY[Nle]CA; Cys residues bonded to TATA scaffold; [Ac]CP[1Nal][dK]CM[HArg]DWSTP[HyP]W[Cysteamine]; reactive groups bonded to TATA scaffold
B16: BCY11616 (peptide)
peptide 1: CPXDCMXDWSTPXWC
peptide 2: ACIEEKQYCFADPYXCA
modifications: Ac-ACIEE(D-K)(PYA)QYCFADPY(Nle)CA; Cys residues bonded to TATA scaffold; CP[1Nal][dD]CM[HArg]DWSTP[HyP]WC; Cys residues bonded to TATA scaffold
B17: BCY12582 (peptide)
peptide 1: CP[1Nal][dA]CM[hArg]DWSTP[Hyp]WC
peptide 2: Ac-C[tBuAla]PE[dK](Pent4ynoyl)PYCFADPY[Nle]CA
modifications: linker I:1-I:5-I:15, II:1-II:8-II:15 via TATA; not fully specified (bridges); also: chain 1 N-terminus joined to chain 2 dLys(PYA) by Peg5 linker (heterotandem complex)

The binders below were run against CD137 (UniProt Q07011 24-255, limits assumed) (assay: cell-based or functional assay).
Chain of CD137 (Q07011 24-255 limits assumed): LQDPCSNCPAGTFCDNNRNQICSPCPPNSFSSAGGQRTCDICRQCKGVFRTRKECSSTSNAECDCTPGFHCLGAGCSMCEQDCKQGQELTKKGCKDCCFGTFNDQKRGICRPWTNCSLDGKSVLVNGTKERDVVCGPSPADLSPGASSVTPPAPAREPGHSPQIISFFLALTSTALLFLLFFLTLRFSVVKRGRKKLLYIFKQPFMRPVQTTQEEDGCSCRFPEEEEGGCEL

| Binder | Fold improvement in EC50 over BCY10000 on same plate | Fold improvement in Emax over BCY10000 on same plate |
| --- | --- | --- |
| B1 | 0.6 fold | 1.47 fold |
| B2 | 0.23 fold | 1.45 fold |
| B3 | 0.08 fold | 2.15 fold |
| B4 | 1.31 fold | 1.5 fold |
| B5 | 0.16 fold | 1.41 fold |
| B6 | 0.29 fold | 1.07 fold |
| B7 | 0.35 fold | 1.67 fold |
| B8 | 1.35 fold | 0.88 fold |
| B9 | 0.09 fold | 2.59 fold |
| B10 | 0.22 fold | 0.77 fold |
| B11 | 0.74 fold | 1.34 fold |
| B12 | 0.05 fold | 0.07 fold |
| B13 | 0.64 fold | 0.97 fold |
| B14 | 0.05 fold | 0.93 fold |
| B15 | 0.25 fold | 1.06 fold |
| B16 | 0.21 fold | 1.22 fold |
| B17 | 1.69 fold | 1.32 fold |
